Data taken from patent US20160068609A1.

Assays:
[1] = target: Fc receptors on primary human blood cells: NK cells (CD16+CD56+); assay: flow cytometry on human blood cells (Example 7)
[2] = target: Fc receptors on primary human blood cells: granulocytes (CD66+); assay: flow cytometry on human blood cells (Example 7)
[3] = target: Fc receptors on primary human blood cells: granulocytes (CD66+); assay: flow cytometry on human granulocytes (CD66+)

| percent of NK cells bound [1] | percent of granulocytes bound [2] | percent of granulocytes bound [3] | Substance |
| --- | --- | --- | --- |
| < 5% | < 5% |  | Fuc+ cetuximab (high fucose anti-EGFR antibody cetuximab produced in mouse myeloma cell line SP2/0) |
|  |  | 20% | control antibody having an Fc glycosylation pattern similar to that of Fuc- cetugex (including a similarly low fucosylation) |
|  |  | 100% | Fuc- cetuximab (low fucosylation variant of cetuximab; reduced fucose anti-EGFR antibody according to the invention) |
